According to patent US6613742B1, “Chemokine-derived synthetic peptides” (Thomas Jefferson University, priority 1999, dated 2003):
Where no end group is shown, it is not given here.

Biological target: T1, CXCR4 (Homo sapiens, UniProt P61073)
T1 construct: expressed in transfected cells; host or cells: QT6 cells, calcium phosphate transfection
Test: HIV-1 gp 120-CXCR4 mediated cell-cell fusion assay (luciferase reporter)
Format: cell-based
Settings: for inhibiting cell-cell fusion, compared with N-terminal SDF-1 peptides SEQ ID NOS:8 and 10: effector 293 cells + QT6 target cells (CD4, CXCR4), peptide concentration 25 μM (FIG. 1)

T1 sequence (P61073 whole entry): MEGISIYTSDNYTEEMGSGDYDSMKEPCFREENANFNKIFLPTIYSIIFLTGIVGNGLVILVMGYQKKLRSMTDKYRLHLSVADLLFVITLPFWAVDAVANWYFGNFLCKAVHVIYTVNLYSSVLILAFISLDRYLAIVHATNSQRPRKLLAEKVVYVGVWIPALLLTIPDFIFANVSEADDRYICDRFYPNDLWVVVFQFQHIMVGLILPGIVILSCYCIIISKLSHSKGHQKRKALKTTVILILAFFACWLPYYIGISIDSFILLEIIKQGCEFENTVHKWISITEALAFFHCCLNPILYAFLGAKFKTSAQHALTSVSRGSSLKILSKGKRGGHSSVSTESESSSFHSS

| Sequence | inhibiting cell-cell fusion, compared with N-terminal SDF-1 peptides SEQ ID NOS:8 and 10 | activity in inhibiting cell-cell fusion (higher concentration of 50 μM) |
| --- | --- | --- |
| KPVSLSYRCPCRFFGGQGLKWIQEYLEKALN (cysteine pairing not given here) [SEQ ID NO:5, SDF-1 amino acids 1-14 and 55-67 linked by a (Gly)4 bridge] | substantially more effective | – |
| LKWIQEYLEKALN [SEQ ID NO:9, C-terminal SDF-1 peptide prepared for comparison, reference compound] | – | only negligibly active |
| LSYRCPCRFFGGGGLKWIQEYLEKALN (cysteine pairing not given here) [SEQ ID NO:4, SDF-1 amino acids 5-14 and 55-67 linked by (Gly)4] | substantially more effective | – |
| LSYRCPCRFFGGLKWIQEYLEKALN (cysteine pairing not given here) [SEQ ID NO:6, SDF-1 amino acids 5-14 and 55-67 linked by (Gly)2] | substantially more effective | – |
| LSYRCPCRFFKKKKLKWIQEYLEKALN (cysteine pairing not given here) [SEQ ID NO:7, SDF-1 amino acids 5-14 and 55-67 linked by (Lys)4] | substantially more effective | – |
